B1: Adhesion G protein-coupled receptor L3 (Mus musculus), Q80TS3 (parent)
chain: MWPPQLLILTMLLAPVVHGGKHNERHPALAAPLRHAERSPGGALPPRHLLQQPAAERSTAHRGQGPRGAARGVRGPGAPGAQIAAQAFSRAPIPMAVVRRELSCESYPIELRCPGTDVIMIESANYGRTDDKICDSDPAQMENIRCYLPDAYKIMSQRCNNRTQCAVVAGPDVFPDPCPGTYKYLEVQYECVPYKVEQKVFLCPGLLKGVYQSEHLFESDHQSGAWCKDPLQASDKIYYMPWTPYRTDTLTEYSSKDDFIAGRPTTTYKLPHRVDGTGFVVYDGALFFNKERTRNIVKFDLRTRIKSGEAIIANANYHDTSPYRWGGKSDIDLAVDENGLWVIYATEQNNGKIVISQLNPYTLRIEGTWDTAYDKRSASNAFMICGILYVVKSVYEDDDNEATGNKIDYIYNTDQSKDSLVDVPFPNSYQYIAAVDYNPRDNLLYVWNNYHVVKYSLDFGPLDSRSGPVHHGQVSYISPPIHLDSELERPPVRGISTTGSLGMGSTTTSTTLRTTTWNIGRSTTASLPGRRNRSTSTPSPAVEVLDDVTTHLPSAASQIPAMEESCEAVEAREIMWFKTRQGQVAKQPCPAGTIGVSTYLCLAPDGIWDPQGPDLSNCSSPWVNHITQKLKSGETAANIARELAEQTRNHLNAGDITYSVRAMDQLVGLLDVQLRNLTPGGKDSAARSLNKLQKRERSCRAYVQAMVETVNNLLQPQALNAWRDLTTSDQLRAATMLLDTVEESAFVLADNLLKTDIVRENTDNIQLEVARLSTEGNLEDLKFPENMGHGSTIQLSANTLKQNGRNGEIRVAFVLYNNLGPYLSTENASMKLGTEAMSTNHSVIVNSPVITAAINKEFSNKVYLADPVVFTVKHIKQSEENFNPNCSFWSYSKRTMTGYWSTQGCRLLTTNKTHTTCSCNHLTNFAVLMAHVEVKHSDAVHDLLLDVITWVGILLSLVCLLICIFTFCFFRGLQSDRNTIHKNLCISLFVAELLFLIGINRTDQPIACAVFAALLHFFFLAAFTWMFLEGVQLYIMLVEVFESEHSRRKYFYLVGYGMPALIVAVSAAVDYRSYGTDKVCWLRLDTYFIWSFIGPATLIIMLNVIFLGIALYKMFHHTAILKPESGCLDNINYEDNRPFIKSWVIGAIALLCLLGLTWAFGLMYINESTVIMAYLFTIFNSLQGMFIFIFHCVLQKKVRKEYGKCLRTHCCSGKSTESSIGSGKTSGSRTPGRYSTGSQSRIRRMWNDTVRKQSESSFITGDINSSASLNREGLLNNARDTSVMDTLPLNGNHGNSYSIAGGEYLSNCVQIIDRGYNHNETALEKKILKELTSNYIPSYLNNHERSSEQNRNMMNKLVNNLGSGSEDDAIVLDDAASFNHEESLGLELIHEESDAPLLPPRVYSTDNHQPHHYSRRRFPQDHSESFFPLLTDEHTEDLQSPHRDSLYTSMPALAGVPAADSVTTSTQTEAAAAKGGDAEDVYYKSMPNLGSRNHVHPLHAYYQLGRGSSDGFIVPPNKDGASPEGTSKGPAHLVTSL
partner: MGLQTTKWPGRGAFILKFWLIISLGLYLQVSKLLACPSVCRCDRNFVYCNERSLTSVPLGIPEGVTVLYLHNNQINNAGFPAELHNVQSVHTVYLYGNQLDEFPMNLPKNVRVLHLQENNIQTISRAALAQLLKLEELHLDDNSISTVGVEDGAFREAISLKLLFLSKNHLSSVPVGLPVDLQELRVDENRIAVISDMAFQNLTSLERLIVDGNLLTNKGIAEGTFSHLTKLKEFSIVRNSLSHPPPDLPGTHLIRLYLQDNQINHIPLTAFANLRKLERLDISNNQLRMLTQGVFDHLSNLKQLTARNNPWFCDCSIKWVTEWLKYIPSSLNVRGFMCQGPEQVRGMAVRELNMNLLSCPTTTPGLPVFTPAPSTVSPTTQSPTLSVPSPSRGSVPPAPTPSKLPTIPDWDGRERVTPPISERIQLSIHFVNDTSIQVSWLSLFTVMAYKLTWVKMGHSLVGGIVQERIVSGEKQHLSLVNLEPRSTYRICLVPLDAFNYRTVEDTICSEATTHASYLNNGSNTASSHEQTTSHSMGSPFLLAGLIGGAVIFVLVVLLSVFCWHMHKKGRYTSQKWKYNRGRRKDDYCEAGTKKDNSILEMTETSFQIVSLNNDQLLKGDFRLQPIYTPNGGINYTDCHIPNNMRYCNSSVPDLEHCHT
B2: Leucine-rich repeat transmembrane protein FLRT2 (Mus musculus), Q8BLU0 (parent)
chain: B1 partner

Variants of: B1
Details: with flrt2_mouse Flrt2, Q8BLU0

| Variant | effect of a mutation on the interaction |
| --- | --- |
| P244N;R246T | decreasing interaction strength |
| T267N;K269T | decreasing interaction strength |

Next, values leading:

| effect of a mutation on the interaction | Variant |
| --- | --- |
| disrupting interaction strength | R324N;G326T |
| disrupting interaction strength | R292N;R294T |

Variants of: B2
Details: with agrl3_mouse Adgrl3, Q80TS3

| effect of a mutation on the interaction | Variant |
| --- | --- |
| disrupting interaction strength | R186N;D188T |

— IntAct's records for PubMed 25728924
